Assay results published in PMC4175178.

Target: 60S ribosomal subunit-nascent chain complex made from F-VHP-β RNCs (not stated | rabbit (endogenous in reticulocyte lysate, RRL)) (UniProt G1TSG1)

## FLAG-tagged human Listerin (from UniProt O94822 1-1766) (enzyme)
  ubiquitination of 60S versus 80S nascent chain complexes, separated on a sucrose gradient and given purified Listerin, E1, E2, ubiquitin and ATP (Figure S4E): 10 fold
